Laboratory results as given in patent US20230381350A1 (PRECIRIX N V, published 2023).

Key:
[1] = target: T1, human FAP recombinant protein (human, UniProt Q12884 26-760); test: bio-layer interferometry (Octet RED96), biotinylated human FAP on streptavidin sensor, kinetic titration, 25 °C
T1 construct: The protein was biotinylated with sulfo-NHS-SS-biotin for bio-layer interferometry; also called extracellular domain of human FAP with N-terminal His6-tag
T1 sequence: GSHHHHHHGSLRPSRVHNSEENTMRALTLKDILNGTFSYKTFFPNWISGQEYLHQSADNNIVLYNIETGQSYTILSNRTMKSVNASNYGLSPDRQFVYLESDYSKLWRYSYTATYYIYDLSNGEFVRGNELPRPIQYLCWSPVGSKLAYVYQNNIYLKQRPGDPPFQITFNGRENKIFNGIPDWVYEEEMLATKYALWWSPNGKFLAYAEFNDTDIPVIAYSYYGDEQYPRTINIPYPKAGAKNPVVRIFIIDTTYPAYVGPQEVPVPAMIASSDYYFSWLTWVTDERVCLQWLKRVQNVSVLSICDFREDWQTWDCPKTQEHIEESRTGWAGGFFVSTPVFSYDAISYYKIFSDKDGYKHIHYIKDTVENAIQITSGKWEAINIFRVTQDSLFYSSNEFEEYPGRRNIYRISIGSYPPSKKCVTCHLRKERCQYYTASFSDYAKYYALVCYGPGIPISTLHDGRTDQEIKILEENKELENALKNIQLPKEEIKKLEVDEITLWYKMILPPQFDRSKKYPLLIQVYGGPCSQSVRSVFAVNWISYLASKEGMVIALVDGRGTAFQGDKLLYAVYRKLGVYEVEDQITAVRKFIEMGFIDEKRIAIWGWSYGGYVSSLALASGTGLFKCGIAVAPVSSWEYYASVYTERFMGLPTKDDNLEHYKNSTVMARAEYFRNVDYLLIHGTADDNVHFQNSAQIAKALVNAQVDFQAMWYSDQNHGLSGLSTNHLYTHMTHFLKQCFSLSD
Experimental: (§1) The kinetic parameters of antigen binding by purified VHHs were determined via bio-layer interferometry with an Octet RED96 instrument (ForteBio). The assay was performed at 25° C. with shaking at 1000 rpm. Streptavidin coated SA sensors were equilibrated in assay buffer (HBS supplemented with 0.5% BSA, 0.1% Tween), before loading for 5 min with the biotinylated FAP recombinant protein at a concentration of 5 μg/ml. His₆-tagged VHHs were analyzed in a threefold serial dilution from 30 nM to 0.4 nM in assay buffer (except for VHH B3 binding murine FAP recombinant protein, for which a fivefold serial dilution from 1000 nM to 1.6 nM was employed). First the baseline was measured for 180 s in assay buffer, followed by 5 subsequent association phases of 180 s with the VHH preparations in increasing order of concentration, with 75 s intermediate dissociation phases in assay buffer in between, and a final dissociation phase in assay buffer of 30 min. In every assay a reference sensor loaded with FAP recombinant protein was included that was incubated in assay buffer during the association phases.
Binding curves were exported and analyzed using the BIAevaluation analysis software (GE Healthcare). First the y-axes of the different curves were aligned to the median of the last 5 s of the baseline measurement. Subsequently, the sensorgram of the reference sensor was subtracted from all other sensorgrams. The resulting binding curve was fitted using a general fit with the ‘kinetic titration with drift’ binding model (1:1 (antigen:analyte) model; Karlsson, R. et al (2006), Analyzing a kinetic titration series using affinity biosensors. Analytical Biochemistry 349: 136-147), with Rmax fitted global, RI local and drift set to 0.
Table 7 gives an overview of the kinetic parameters of antigen binding for His₆-tagged VHHs B1, B2, B3 and B4 (SEQ ID NO: 21-24), as determined by bio-layer interferometry with biotinylated human or murine FAP recombinant protein that was loaded on the sensor.

[2] = target: T2, murine FAP recombinant protein (murine, UniProt P97321 26-761); test: bio-layer interferometry (Octet RED96), biotinylated murine FAP on streptavidin sensor
T2 construct: The protein was biotinylated for bio-layer interferometry; also called extracellular domain of murine FAP with N-terminal His6-tag
T2 sequence: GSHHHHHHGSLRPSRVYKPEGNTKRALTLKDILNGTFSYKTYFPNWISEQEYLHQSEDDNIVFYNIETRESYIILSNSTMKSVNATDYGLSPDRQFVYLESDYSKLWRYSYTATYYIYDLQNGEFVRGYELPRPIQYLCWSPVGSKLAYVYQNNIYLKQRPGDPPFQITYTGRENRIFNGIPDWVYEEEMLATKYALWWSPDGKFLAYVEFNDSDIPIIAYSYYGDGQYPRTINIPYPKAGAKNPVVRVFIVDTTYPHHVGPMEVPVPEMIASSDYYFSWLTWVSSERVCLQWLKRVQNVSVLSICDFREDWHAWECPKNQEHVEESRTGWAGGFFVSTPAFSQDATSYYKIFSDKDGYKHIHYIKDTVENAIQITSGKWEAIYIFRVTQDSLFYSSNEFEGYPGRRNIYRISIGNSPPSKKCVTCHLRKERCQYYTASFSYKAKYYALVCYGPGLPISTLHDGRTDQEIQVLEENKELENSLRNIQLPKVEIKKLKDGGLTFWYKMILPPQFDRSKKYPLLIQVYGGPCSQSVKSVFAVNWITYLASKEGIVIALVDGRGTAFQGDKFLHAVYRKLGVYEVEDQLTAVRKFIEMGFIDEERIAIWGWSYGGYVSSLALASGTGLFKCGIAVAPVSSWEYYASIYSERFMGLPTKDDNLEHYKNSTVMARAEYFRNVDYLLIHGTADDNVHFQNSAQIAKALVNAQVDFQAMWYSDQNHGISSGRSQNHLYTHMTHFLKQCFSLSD
Experimental: as §1
Binding curves were exported and analyzed using the BIAevaluation analysis software (GE Healthcare). First the y-axes of the different curves were aligned to the median of the last 5 s of the baseline measurement. […]

[3] = target: T3, human FAP expressed on cells (human, UniProt Q12884 1-760); test: saturation binding of 111In-DOTA-labelled untagged VHH B1 on human FAP-expressing GM05389 cells
T3 construct: also called human FAP cell surface protein; human FAP receptor
T3 sequence: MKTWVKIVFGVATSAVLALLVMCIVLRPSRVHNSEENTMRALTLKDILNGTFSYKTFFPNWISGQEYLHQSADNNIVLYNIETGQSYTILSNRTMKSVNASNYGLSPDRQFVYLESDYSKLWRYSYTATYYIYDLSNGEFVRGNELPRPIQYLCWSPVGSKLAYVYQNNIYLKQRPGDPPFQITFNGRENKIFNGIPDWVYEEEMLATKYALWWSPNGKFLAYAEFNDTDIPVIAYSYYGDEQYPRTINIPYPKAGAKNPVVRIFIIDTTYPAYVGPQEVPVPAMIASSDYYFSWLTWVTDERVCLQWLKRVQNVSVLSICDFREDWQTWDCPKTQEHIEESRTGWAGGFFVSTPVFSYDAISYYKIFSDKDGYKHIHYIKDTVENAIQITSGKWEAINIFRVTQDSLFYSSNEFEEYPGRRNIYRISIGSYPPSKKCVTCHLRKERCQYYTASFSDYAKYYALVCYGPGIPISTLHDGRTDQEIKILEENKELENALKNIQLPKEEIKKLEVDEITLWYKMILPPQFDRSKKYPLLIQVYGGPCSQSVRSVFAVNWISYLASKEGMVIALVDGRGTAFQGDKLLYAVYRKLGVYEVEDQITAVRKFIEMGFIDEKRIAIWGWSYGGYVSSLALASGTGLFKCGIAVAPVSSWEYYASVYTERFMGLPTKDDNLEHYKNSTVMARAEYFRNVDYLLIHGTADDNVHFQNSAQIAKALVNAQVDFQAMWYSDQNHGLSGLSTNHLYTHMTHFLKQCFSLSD
Experimental: Secondly, untagged human/murine FAP-crossreactive VHH B1 was radiolabeled with ¹¹¹In, after which its in vitro and in vivo diagnostic potential was evaluated. The binding potential of the resulting radio-conjugate was assessed to confirm that this was not affected by the conjugation of ¹¹¹In-DOTA to the amino acid sequence of the VHH. To this, human FAP-expressing GM05389 cells were incubated with serial dilutions with concentrations ranging from 0 to 33 nM of the ¹¹¹In-labelled VHHs. A 100-fold excess of the corresponding unlabeled VHH was added in parallel to saturate the human FAP receptors expressed on cancer cells, to assess non-specific binding.

[4] = target: T3, human FAP expressed on cells; test: saturation binding of 177Lu-DTPA-labelled untagged VHH B1 on human FAP-expressing HEK-293 cells
Experimental: (§2) In a first part, its in vitro behaviour was assessed by means of investigating its cellular binding and retention overtime. The binding potential of the resulting radioconjugates was assessed to confirm that this was not affected by the introduction of ¹⁷⁷Lu-DTPA into the amino acid sequence of the VHH. To this, human FAP-expressing GM05389 and HEK-293 cells were incubated with serial dilutions with concentrations ranging from 0 to 33 nM of ¹⁷⁷Lu-labeled untagged VHH B1. A 100-fold excess of the corresponding unlabeled VHH was added in parallel to saturate the human FAP receptors expressed on cancer cells, to assess non-specific binding.

[5] = target: T3, human FAP expressed on cells; test: saturation binding of 177Lu-DTPA-labelled untagged VHH B1 on human FAP-expressing GM05389 cells
Experimental: as §2

[6] = target: T3, human FAP expressed on cells; test: saturation binding of 225Ac-DOTA-labelled untagged VHH B1 on human FAP-expressing GM05389 cells
[7] = target: T2, murine FAP recombinant protein; test: ELISA, coated murine FAP recombinant protein, HA-His6-tagged VHH extract, anti-HA detection
Experimental: The day before measurement, 0.1 μg recombinant protein at a concentration of 1 μg/mL in 100 mM NaHCO₃, pH 8.2 was coated in a 96-well ELISA plate (Nunc MaxiSorp). Per VHH clone also a blank coated well was foreseen (only buffer). The wells were overcoated with protein-free T20 (PBS) blocking buffer (Pierce). After washing with PBS, pH7.4, 0.05% Tween, VHH-containing bacterial freeze-thaw extract was added to every well. Binding of HA-His₆-tagged VHHs was detected by using mouse anti-HA.11 epitope tag (clone 16B12, Biolegend) as the primary Ab and goat anti-mouse IgG (whole molecule) alkaline phosphatase conjugate (Sigma-Aldrich) as the secondary Ab, with thorough washing with PBS, pH 7.4, 0.05% Tween in between. Signals were developed using phosphatase substrate (Sigma-Aldrich) in AP blot buffer (100 mM NaCl, 50 mM MgCl₂, 100 mM Tris, pH 9.5). The absorbance was determined at 405 nm using an absorbance microplate reader (Molecular Devices). Per clone the ratio was determined between the absorbance in the antigen-coated well versus the well without antigen.

[8] = target: T3, human FAP expressed on cells; test: flow cytometry on human FAP-expressing GM05389 cells, VHH-containing bacterial extract, anti-HA and PE-conjugated secondary detection, Δmfi against cells without VHH
Experimental: The cell binding was tested by flow cytometry experiments. Per test condition 1×10⁵ to 2×10⁵ cells, washed in PBS, 0.5% BSA, were pelleted in the well of a 96-well U-bottom plate. The cell pellets were resuspended and incubated with the VHH-containing bacterial freeze-thaw extracts (diluted in PBS, 0.5% BSA). Binding of HA-His₆-tagged VHHs was detected by using mouse anti-HA.11 epitope tag (clone 16B12, Biolegend) as the primary detection antibody and PE-conjugated rat anti-mouse IgG1 (clone A85-1, BD Pharmingen) as the secondary detection antibody, with washing with PBS, 0.5% BSA in between, and finally resuspended in PBS, 0.5% BSA.
Flow cytometry was performed on a FACS Canto II (BD Biosciences). Data were analyzed using FlowJo software. Based on the forward scatter-side scatter plot a single cell gate was drawn. The median fluorescence intensity was determined on a histogram for the phycoerythrin signal of the single cells. The difference in median fluorescence intensity (A mfi) was calculated relative to a test condition without incubation of VHHs (cells+primary Ab+secondary Ab), and are shown in FIG. 3.

[9] = target: T1, human FAP recombinant protein; test: ELISA on coated recombinant protein, VHH-containing bacterial extract, anti-HA detection, signal-to-background ratio
Procedure, shortened: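 Recombinant protein coated overnight (0.1 μg, 1 μg/mL in NaHCO₃ pH 8.2), blocked, then probed with VHH-containing bacterial freeze-thaw extract. HA-tagged VHH detected via anti-HA and AP-conjugated secondary antibody, absorbance at 405 nm; value is ratio of antigen-coated to uncoated-well signal per clone.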

B1: His6-tagged VHH B3 (VHH)
VHH: DVQLVESGGGLVQAGGSLRLSCAVSGRLFSTNAMGWYRQAPGKQRELVAGITGGDRSNYADSVKGRFTISRDNGKNTLYLQMNSLKPEDTAVYYCNFYPPIVGDYWGQGTQVTVSS
notes: Purified, unlabelled; used in bio-layer interferometry; also called B3 with His6-tag
- Kd [1]: 0.16 nM
- koff [1]: 5.4e-05 s⁻¹
- kon [1]: 340000 M⁻¹ s⁻¹
- binding result [2]: no binding

B2: 111In-labeled untagged VHH B1 (VHH)
VHH: DVQLVESGGGLVQPGGSLRLSCVASGRLSSSNSMAWYRQVPGKRRELVAGITGGGETNYADFVGGRFTISRDNAKNGLYLQLNGLKPEDTAAYYCNFWPPLINYWGQGTQVTVSS
modifications: 111In-DOTA (p-SCN-Bn-DOTA) conjugated to lysine side-chain amines
- EC50 [3]: 0.6 nM

B3: 177Lu-labeled untagged VHH B1 (VHH)
VHH: DVQLVESGGGLVQPGGSLRLSCVASGRLSSSNSMAWYRQVPGKRRELVAGITGGGETNYADFVGGRFTISRDNAKNGLYLQLNGLKPEDTAAYYCNFWPPLINYWGQGTQVTVSS
modifications: 177Lu-DTPA (p-SCN-Bn-CHX-A''-DTPA) conjugated to lysine side-chain amines
notes: also called 177Lu-B1; 177Lu-DTPA-VHH
- EC50 [4]: 0.8 nM
- EC50 [5]: 0.5 nM

B4: 225Ac-labeled untagged VHH B1 (VHH)
VHH: DVQLVESGGGLVQPGGSLRLSCVASGRLSSSNSMAWYRQVPGKRRELVAGITGGGETNYADFVGGRFTISRDNAKNGLYLQLNGLKPEDTAAYYCNFWPPLINYWGQGTQVTVSS
modifications: 225Ac-DOTA (p-SCN-Bn-DOTA) conjugated to lysine side-chain amines
notes: also called 225Ac-DOTA-VHH
- EC50 [6]: 0.4 nM

B5: HA-His6-tagged VHH B4 (VHH)
VHH: QVQLQESGGGLVQVGGSLRLSCVASGFTFSSYYMSWVRQAPGKGLEWVASIYADGDMTYYADSVRGRFTISRDNAKNTLYLQMNSLKSEDTAVYYCAKDPLPPYHVNQGTQVTVSS
notes: also called B4 with HA-His6-tag
- signal-to-background ratio [7]: > 30
- binding result [8]: no binding
- binding result [9]: no binding
